Assay results published in paper PMC4268495 (Nature, 2014).
Numbering of substitutions follows the chain as printed.

B1: MapZ N-terminal peptide from Met-1 to Gly-41 (domain or fragment, Streptococcus pneumoniae, UniProt Q8DR55 1-41, looked up)
chain: MSKKRRNRHKKEAQEPQFDFDEAKELTVGQAIRKNEEVEAG
B2: MapZ cytoplasmic domain (domain or fragment, Streptococcus pneumoniae, UniProt Q8DR55 1-158, looked up)
chain: MSKKRRNRHKKEAQEPQFDFDEAKELTVGQAIRKNEEVEAGVLPEDSILDKYVKQHRDEIEADKFATRQYKKEEFVETQSLDDLIQEMREAVEKSEASSEEVPSSEDILLPLPLDDEEQGLDPLLLDDENPTEMTEEVEEEQNLSRLDQEDSEKKSKK
B3: MapZ-2TE cytoplasmic domain (domain or fragment, Streptococcus pneumoniae, UniProt Q8DR55 1-158, looked up)
chain: B2 chain with T67E, T78E

Target: T1, FtsZ (full length, recombinant) (Streptococcus pneumoniae, UniProt A0A0H2ZNE0 1-419)
T1 sequence (looked up): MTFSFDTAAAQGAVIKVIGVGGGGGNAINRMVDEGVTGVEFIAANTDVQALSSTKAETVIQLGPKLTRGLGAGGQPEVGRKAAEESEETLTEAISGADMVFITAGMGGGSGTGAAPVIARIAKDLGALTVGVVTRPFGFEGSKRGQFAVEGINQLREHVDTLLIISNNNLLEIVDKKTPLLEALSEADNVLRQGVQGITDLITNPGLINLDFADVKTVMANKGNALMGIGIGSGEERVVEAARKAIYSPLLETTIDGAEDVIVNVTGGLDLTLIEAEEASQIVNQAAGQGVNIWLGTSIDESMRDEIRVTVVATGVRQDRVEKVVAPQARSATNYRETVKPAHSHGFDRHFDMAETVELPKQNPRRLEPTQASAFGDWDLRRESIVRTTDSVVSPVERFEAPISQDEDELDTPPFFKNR
Assay: SPR

Binder	Kd [nM]	binding result
B1	20.4	–
B2	8.76	–
B3	–	binds
